Paper PMC6046605
Where “and” joins values, the source holds several entries; their conditions need not be identical. Identical values can stand only once.

Legend:
[1] = biological target: murine norovirus (MNV) RNA-dependent RNA polymerase (RdRp), native (murine norovirus (MNV)); assay: cross-linking; 0.001% glutaraldehyde, room temperature 6 min; 50 mM HEPES pH 7.4, 5 mM MgCl2, 5 mM DTT, 1 μM oligo(A)15, 2 μM RdRp, 6 μM VPg; SDS-PAGE and western blot with anti-RdRp or anti-VPg antisera
[2] = biological target: murine norovirus (MNV) RNA-dependent RNA polymerase (RdRp), native (murine norovirus (MNV)); assay: negative-stain electron microscopy; RdRp alone, 1-6 μM protein, 1 h at room temperature, uranyl formate stain; 2D class averages compared with projections of the hexamer model
[3] = biological target: murine norovirus (MNV) RNA-dependent RNA polymerase (RdRp), native (murine norovirus (MNV)); assay: crystal structure; RdRp incubated with VPg at a molar ratio of 1:2 with UTP or GTP, oligo(A) or oligo(C), 2 mM MnCl2, 2 mM MgCl2; P21, six monomers in the asymmetric unit; 3.1 Å
[4] = biological target: murine norovirus (MNV) RNA-dependent RNA polymerase (RdRp), native (murine norovirus (MNV)); assay: SPR; data not shown; immobilised RdRp; Biacore2000, 1:1 Langmuir kinetics
[5] = biological target: murine norovirus (MNV) RdRp D331A mutant (murine norovirus (MNV)); assay: not stated; D331A and L354D RdRp by themselves, in the absence of VPg; told only in the discussion
[6] = biological target: murine norovirus (MNV) RdRp L354D mutant (murine norovirus (MNV)); assay: as above
[7] = biological target: murine norovirus (MNV) RdRp L354D mutant (murine norovirus (MNV)); assay: SPR; Biacore2000; RdRp or mutant RdRp immobilised on a CM5 chip (amine coupling, sodium acetate pH 5.0); analyte in 20 mM Tris-HCl pH 8.0, 100 mM NaCl, 5 mM MgCl2; 1:1 Langmuir kinetics
[8] = biological target: murine norovirus (MNV) RdRp D331A mutant (murine norovirus (MNV)); assay: as above
[9] = biological target: murine norovirus (MNV) RNA-dependent RNA polymerase (RdRp), native (murine norovirus (MNV)); assay: as above
[10] = biological target: murine norovirus (MNV) RNA-dependent RNA polymerase (RdRp), native (murine norovirus (MNV)); assay: as above; remark: listed apart in the source

In the case of “murine norovirus (MNV) RNA-dependent RNA polymerase (RdRp), native (enzyme)”, the stoichiometry N [1] is reported as 2 and 3 and 6, the stoichiometry N [2] is reported as 6 and the stoichiometry N [3] is reported as 6. It also gave a Kd [4] of 2.2 nM.

“murine norovirus (MNV) RdRp D331A mutant (enzyme)” was tested, and the stoichiometry N [5] was 6.

Work on “murine norovirus (MNV) RdRp L354D mutant (enzyme)” yielded a stoichiometry N [6] of 6.

“murine norovirus (MNV) VPg(1-73) (domain or fragment)” gave a Kd [4] of 17 nM.

“murine norovirus (MNV) VPg(1-124), full length (natural protein)” gave a Kd [7] of 210 nM, a Kd [8] of 23 nM and a Kd [9] of 8.7 nM. The Kd [10] was 8.9 nM.
